Our source for the Kd values is US11525133 (dated 2022).

In this assay the target is p53-TPR2. Description: ITC.

B1: Mdm2 N-terminal domain (other)
chain: SQIPASEQETLVRPKPLLLKLLKSVGAQKDTYTMKEVLFYLGQYIMTKRLYDEKQQHIVYCSNDLLGDLFGVPSFSVKEHRKIYTMIYRNLVVVNQQESSDSGTSVSEN
In turn, B1 displayed a dissociation constant (Kd) of 54 nM.
